Measurements as given in US20240270846A1 (published 2024).

The binders below were run against T1, CD3 epsilon homodimer protein (UniProt P07766 23-126) (assay: SPR Biacore T200, CD3 epsilon homodimer immobilized; vs unaltered GLS3000;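 note: antibody variants flowed as analyte over CD3 epsilon homodimer amine-coupled to a CM4 chip, at 25 °C in HBS-EP+ running buffer, fitted with Biacore T200 Evaluation Software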).
T1 construct: construct not described; homodimer as printed; also called CD3 (CD3 epsilon)
T1 sequence (P07766 23-126): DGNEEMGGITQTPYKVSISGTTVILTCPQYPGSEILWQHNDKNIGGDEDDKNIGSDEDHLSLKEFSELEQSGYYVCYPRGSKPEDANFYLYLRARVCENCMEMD

KD ratio to GLS3000 (Affinity up) | Binder
354 | GLS3000 H27dV (Kabat) L chain altered form, one-arm antibody with CE115HA000 (antibody, human IgG1, kappa, L234A L235A, N297A, name in Kabat numbering, one-arm antibody) heavy: QVQLVESGGGVVQPGRSLRLSCAASGFTFSNAWMHWVRQAPGKGLEWVAQIKAKSNNYATYYAESVKGRFTISRDDSKNSLYLQMNSLKTEDTAVYYCRYVHYGAYYGVDAWGQGTTVTVSSASTKGPSVFPLAPSSKSTSGGTAALGCLVKDYFPEPVTVSWNSGALTSGVHTFPAVLQSSGLYSLSSVVTVPSSSLGTQTYICNVNHKPSNTKVDKKVEPKSCDKTHTCPPCPAPEAAGGPSVFLFPPKPKDTLMISRTPEVTCVVVDVSHEDPEVKFNWYVDGVEVHNAKTKPREEQYASTYRVVSVLTVLHQDWLNGKEYKCKVSNKALPAPIEKTISKAKGQPREPQVYTLPPSRCELTKNQVSLSCAVKGFYPSDIAVEWESNGQPENNYKTTPPVLDSDGSFFLVSKLTVDKSRWQQGNVFSCSVMHEALHNHYTQKSLSLSPDYKDDDDK EPKSSDKTHTCPPCPAPELLGGPSVFLFPPKPKDTLMISRTPEVTCVVVDVSHEDPEVKFNWYVDGVEVHNAKTKPREEQYNSTYRVVSVLTVLHQDWLNGKEYKCKVSNKALPAPIEKTISKAKGQPREPQVCTLPPSRDELTKNQVSLWCLVKGFYPSDIAVEWESNGQPENNYKTTPPVLDSDGSFFLYSKLTVDKSRWQQGNVFSCSVMHEALHNRYTQKSLSLSP light: DIVMTQSPLSLPVTPGEPASISCRSSQSLVVSNRNTYLHWYQQKPGQAPRLLIYKVSNRFSGVPDRFSGSGSGTDFTLKISRVEAEDVGVYYCGQGTQVPYTFGQGTKLEIKRTVAAPSVFIFPPSDEQLKSGTASVVCLLNNFYPREAKVQWKVDNALQSGNSQESVTEQDSKDSTYSLSSTLTLSKADYEKHKVYACEVTHQGLSSPVTKSFNRGEC
1.86 | GLS3000 H27dW (Kabat) L chain altered form, one-arm antibody with CE115HA000 (antibody, human IgG1, kappa, L234A L235A, N297A, name in Kabat numbering, one-arm antibody) heavy: QVQLVESGGGVVQPGRSLRLSCAASGFTFSNAWMHWVRQAPGKGLEWVAQIKAKSNNYATYYAESVKGRFTISRDDSKNSLYLQMNSLKTEDTAVYYCRYVHYGAYYGVDAWGQGTTVTVSSASTKGPSVFPLAPSSKSTSGGTAALGCLVKDYFPEPVTVSWNSGALTSGVHTFPAVLQSSGLYSLSSVVTVPSSSLGTQTYICNVNHKPSNTKVDKKVEPKSCDKTHTCPPCPAPEAAGGPSVFLFPPKPKDTLMISRTPEVTCVVVDVSHEDPEVKFNWYVDGVEVHNAKTKPREEQYASTYRVVSVLTVLHQDWLNGKEYKCKVSNKALPAPIEKTISKAKGQPREPQVYTLPPSRCELTKNQVSLSCAVKGFYPSDIAVEWESNGQPENNYKTTPPVLDSDGSFFLVSKLTVDKSRWQQGNVFSCSVMHEALHNHYTQKSLSLSPDYKDDDDK EPKSSDKTHTCPPCPAPELLGGPSVFLFPPKPKDTLMISRTPEVTCVVVDVSHEDPEVKFNWYVDGVEVHNAKTKPREEQYNSTYRVVSVLTVLHQDWLNGKEYKCKVSNKALPAPIEKTISKAKGQPREPQVCTLPPSRDELTKNQVSLWCLVKGFYPSDIAVEWESNGQPENNYKTTPPVLDSDGSFFLYSKLTVDKSRWQQGNVFSCSVMHEALHNRYTQKSLSLSP light: DIVMTQSPLSLPVTPGEPASISCRSSQSLVWSNRNTYLHWYQQKPGQAPRLLIYKVSNRFSGVPDRFSGSGSGTDFTLKISRVEAEDVGVYYCGQGTQVPYTFGQGTKLEIKRTVAAPSVFIFPPSDEQLKSGTASVVCLLNNFYPREAKVQWKVDNALQSGNSQESVTEQDSKDSTYSLSSTLTLSKADYEKHKVYACEVTHQGLSSPVTKSFNRGEC
1.18 | GLS3000 H34A (Kabat) L chain altered form, one-arm antibody with CE115HA000 (antibody, human IgG1, kappa, L234A L235A, N297A, name in Kabat numbering, one-arm antibody) heavy: QVQLVESGGGVVQPGRSLRLSCAASGFTFSNAWMHWVRQAPGKGLEWVAQIKAKSNNYATYYAESVKGRFTISRDDSKNSLYLQMNSLKTEDTAVYYCRYVHYGAYYGVDAWGQGTTVTVSSASTKGPSVFPLAPSSKSTSGGTAALGCLVKDYFPEPVTVSWNSGALTSGVHTFPAVLQSSGLYSLSSVVTVPSSSLGTQTYICNVNHKPSNTKVDKKVEPKSCDKTHTCPPCPAPEAAGGPSVFLFPPKPKDTLMISRTPEVTCVVVDVSHEDPEVKFNWYVDGVEVHNAKTKPREEQYASTYRVVSVLTVLHQDWLNGKEYKCKVSNKALPAPIEKTISKAKGQPREPQVYTLPPSRCELTKNQVSLSCAVKGFYPSDIAVEWESNGQPENNYKTTPPVLDSDGSFFLVSKLTVDKSRWQQGNVFSCSVMHEALHNHYTQKSLSLSPDYKDDDDK EPKSSDKTHTCPPCPAPELLGGPSVFLFPPKPKDTLMISRTPEVTCVVVDVSHEDPEVKFNWYVDGVEVHNAKTKPREEQYNSTYRVVSVLTVLHQDWLNGKEYKCKVSNKALPAPIEKTISKAKGQPREPQVCTLPPSRDELTKNQVSLWCLVKGFYPSDIAVEWESNGQPENNYKTTPPVLDSDGSFFLYSKLTVDKSRWQQGNVFSCSVMHEALHNRYTQKSLSLSP light: DIVMTQSPLSLPVTPGEPASISCRSSQSLVHSNRNTYLAWYQQKPGQAPRLLIYKVSNRFSGVPDRFSGSGSGTDFTLKISRVEAEDVGVYYCGQGTQVPYTFGQGTKLEIKRTVAAPSVFIFPPSDEQLKSGTASVVCLLNNFYPREAKVQWKVDNALQSGNSQESVTEQDSKDSTYSLSSTLTLSKADYEKHKVYACEVTHQGLSSPVTKSFNRGEC
1.98 | GLS3000 H27dY (Kabat) L chain altered form, one-arm antibody with CE115HA000 (antibody, human IgG1, kappa, L234A L235A, N297A, name in Kabat numbering, one-arm antibody) heavy: QVQLVESGGGVVQPGRSLRLSCAASGFTFSNAWMHWVRQAPGKGLEWVAQIKAKSNNYATYYAESVKGRFTISRDDSKNSLYLQMNSLKTEDTAVYYCRYVHYGAYYGVDAWGQGTTVTVSSASTKGPSVFPLAPSSKSTSGGTAALGCLVKDYFPEPVTVSWNSGALTSGVHTFPAVLQSSGLYSLSSVVTVPSSSLGTQTYICNVNHKPSNTKVDKKVEPKSCDKTHTCPPCPAPEAAGGPSVFLFPPKPKDTLMISRTPEVTCVVVDVSHEDPEVKFNWYVDGVEVHNAKTKPREEQYASTYRVVSVLTVLHQDWLNGKEYKCKVSNKALPAPIEKTISKAKGQPREPQVYTLPPSRCELTKNQVSLSCAVKGFYPSDIAVEWESNGQPENNYKTTPPVLDSDGSFFLVSKLTVDKSRWQQGNVFSCSVMHEALHNHYTQKSLSLSPDYKDDDDK EPKSSDKTHTCPPCPAPELLGGPSVFLFPPKPKDTLMISRTPEVTCVVVDVSHEDPEVKFNWYVDGVEVHNAKTKPREEQYNSTYRVVSVLTVLHQDWLNGKEYKCKVSNKALPAPIEKTISKAKGQPREPQVCTLPPSRDELTKNQVSLWCLVKGFYPSDIAVEWESNGQPENNYKTTPPVLDSDGSFFLYSKLTVDKSRWQQGNVFSCSVMHEALHNRYTQKSLSLSP light: DIVMTQSPLSLPVTPGEPASISCRSSQSLVYSNRNTYLHWYQQKPGQAPRLLIYKVSNRFSGVPDRFSGSGSGTDFTLKISRVEAEDVGVYYCGQGTQVPYTFGQGTKLEIKRTVAAPSVFIFPPSDEQLKSGTASVVCLLNNFYPREAKVQWKVDNALQSGNSQESVTEQDSKDSTYSLSSTLTLSKADYEKHKVYACEVTHQGLSSPVTKSFNRGEC
